Data published in publication PMC4382112.

Legend:
[1] = biological target: soluble murine EPCR with a C-terminal myc-His tag (murine) (UniProt Q64695); experiment: ELISA; plate binding assay: soluble murine EPCR (5 μg/ml) captured by immobilised anti-myc monoclonal antibody; murine protein C variants 0 to 1200 nM in TBS-1% BSA, 5mM CaCl2, 0.6mM MgCl2, 2 hours at 37°C with shaking; detected with sheep anti-murine protein C; one-site fit, apparent KD (KD(app)); n = 3
UniProt Q64695, sequence (Q64695 18-214): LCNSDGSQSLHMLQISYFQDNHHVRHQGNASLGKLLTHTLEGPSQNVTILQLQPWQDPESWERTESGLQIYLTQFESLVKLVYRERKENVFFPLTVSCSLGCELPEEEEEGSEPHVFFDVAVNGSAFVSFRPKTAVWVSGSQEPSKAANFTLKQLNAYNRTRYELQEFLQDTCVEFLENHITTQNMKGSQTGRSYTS

Row | Kd [1] | inactivation of 20nM human APC variant by 200nM PCI at 37°C, residual APC activity on S-2366 over 0–20 minutes; half-life (human APC(5A) (human)) | Molecule
1 | 0.129 µM | – | murine protein C(S360A) (natural protein)
2 | – | 4 min | human recombinant protein C inhibitor (PCI) (natural protein) EMKKRVEDLHVGATVAPSSRRDFTFDLYRALASAAPSQSIFFSPVSISMSLAMLSLGAGSSTKMQILEGLGLNLQKSSEKELHRGFQQLLQELNQPRDGFQLSLGNALFTDLVVDLQDTFVSAMKTLYLADTFPTNFRDSAGAMKQINDYVAKQTKGKIVDLLKNLDSNAVVIMVNYIFFKAKWETSFNHKGTQEQDFYVTSETVVRVPMMSREDQYHYLLDRNLSCRVVGVPYQGNATALFILPSEGKMQQVENGLSEKTLRKWLKMFKKRQLELYLPKFSIEGSYQLEKVLPSLGISNVFTSHADLSGISNHSNIQVSEMVHKAVVEVDESGTRAAAATGTIFTFRSARLNSQRLVFNRPFLMFIVDNNILFLGKVNRP

More lines, now with the values behind:

Row | Molecule | Kd [1] | inactivation of 20nM human APC variant by 200nM PCI at 37°C, residual APC activity on S-2366 over 0–20 minutes; half-life (human APC(5A) (human))
3 | plasma-derived murine protein C (natural protein) | 0.0943 µM | –
4 | recombinant murine wt protein C (natural protein) | 0.112 µM | –
